{
  "source": "the DeepSol protein solubility set",
  "data": [
    {"test": "soluble on expression in E. coli; label from the status in PepcDB or PDB records", "values": [
      {"sequence": "KMERKNVWHHRKKEEIEAFSKEYMEFMSKAKTERMTVKEIKRILDESGFVPLEDFAGDPMNMTVYAVNRGKAIAAFRVVDDLKRGLNLVVAHIDSPRLDFKPNPLIEDEQIALFKTHYYGGIKKYHWLSIPLEIHGVLFKNDGTEIEIHIGDKPEDPVFTIPDLLPHLDKEDAKISEKFKGENLMLIAGTIPLSGEEKEAVKTNVLKILNEMYGITEEDFVSGEIEVVPAFSPREVGMDRSLIGAYGQDDRICAYTALRALLSANPEKSIGVIFFDKEEIGSDGNTGAKARFYLKALRQILKMQGAKDSEFVLDEVLENTSVISGDVCAAVNPPYKDVHDLHNAPKLGYGVALVKYTGARGKYSTNDAHAEFVARVRKVLNEQGVIWQVATLGKVDQGGGGTIAKFFAERGSDVIDMGPALLGMHSPFEISSKADLFETYVAYRSLMEKL", "soluble on expression in E. coli": "soluble"},
      {"sequence": "MGSDKIHHHHHHMDSSRSDPMRLMIFGAGYSGKAIGQHFIQQGIPVSGTTRSPAKAKALSDLGIEPLVFDGQRLSDEIIQAMACATHVVQSIAPGSDGDPLLRLTQGALKTWMPKVQWLAYLSTVGVYGDHQGAWVDEDTVCKPVSVRSKERVEAEQAWGRAALAAGVPLSTLRLSGIYGPGRNGLVNMAEGTARRLVKKDQVFNRIRVEDIAAATWFLAGRNEQGIFNITDHEPAPPQDVVAEAARLMEVEPPPEQAFETAELSPMARSFYGENKRVMNAKVRALGFAFAYPDYRVSLSQLWSSGRWRG", "soluble on expression in E. coli": "not soluble"},
      {"sequence": "MAKKDEVGGRVLQDVFLDWAKKYGPVVRVNVFHKTSVIVTSPESVKKFLMSTKYNKDSKMYRALQTVFGERLFGQGLVSECNYERWHKQRRVIDLAFSRSSLVSLMETFNEKAEQLVEILEAKADGQTPVSMQDMLTYTAMDILAKAAFGMETSMLLGAQKPLSQAVKLMLEGITASRNTLAKFLPGKRKQLREVRESIRFLRQVGRDWVQRRREALKRGEEVPADILTQILKAEEGAQDDEGLLDNFVTFFIAGHETSANHLAFTVMELSRQPEIVARLQAEVDEVIGSKRYLDFEDLGRLQYLSQVLKESLRLYPPAWGTFRLLEEETLIDGVRVPGNTPLLFSTYVMGRMDTYFEDPLTFNPDRFGPGAPKPRFTYFPFSLGHRSCIGQQFAQMEVKVVMAKLLQRLEFRLVPGQRFGLQEQATLKPLDPVLCTLRPRGWQPAPPPPPCHHHH", "soluble on expression in E. coli": "soluble"},
      {"sequence": "GPGSMYRLFSCCKTNELKRLFSHALDASIKNEGVAQQRKRQVLPRRHRKLHKLTIREENEEGLRDFLPPKPVVPAGWKLEHVKGSNRFDLRKSVEIRDCGKEHLHAVAMMEVKEYEGTYRMDNGEREEEEYLFFTLFVQKNRFPGALEFGLTSIDMELVMDSLAIHNNREELEDAYGALSVSTSRNGTSNRIIEKSNLSCRSCRDNRYRGPMLSELDDDFSDEILDYLDERGVNNGFAEYMMAQAHFFEQEEYINWIRLLRQFAQ", "soluble on expression in E. coli": "not soluble"},
      {"sequence": "MAAAAAAAGGAALAVSTGLETATLQKLALRRKKVLGAEEMELYELAQAAGAAIDPDVFKILVDLLNLNVAPLAVFQMLKSMCAGQRLASDPQDSVPISLSTSTSETRGRNRGGPILGNVTISAERGSRERPIQRMPRQPSATRLPKVGGSGKSNSRSSP", "soluble on expression in E. coli": "soluble"},
      {"sequence": "LINILEQAKQKNTAQGSESTTNKIIGYTTTANVNVDNQNIFSVSKLNNEQFQRKIIVNATEETLDQSQTLQSNESIVLPMPGKYKSTDKNK", "soluble on expression in E. coli": "soluble"},
      {"sequence": "TGKKAILRLSKRAMHLEWKLVKEIIFLGTSGFVMSVTNGFVQIVCNATLQRYGGDIYVGIMTVINSVREIVTMPVTGLTAASQPVIGYNYGAGCYQRVKSA", "soluble on expression in E. coli": "not soluble"},
      {"sequence": "MSALLEVTNLHKDFVTRSGFLRKQIQHAVKPVSFTLEAGQTIGFIGQNGSGKSTLARMLAGMVAPTGGEIRVNGELLEHKDYSTRCKLIRMIFQDPNTSLNPRLQIGTILEGPLKRNTSMTPEARMRRVKDTLQRVGLLPEHAYFYPQMLATGQKQRVCLARALILQPSIIIADEALNGLDMAMRSQILNLFLELQEEMGVSFVYVSQHIGVIKHITDKIIVMHEGDVVESGETHEVLADPQHPITQRMIESHFTKAPTFKY", "soluble on expression in E. coli": "not soluble"},
      {"sequence": "MGSDKIHHHHHHACSWVDDDRSDCPTGCWLKLSYTYNMLNVDAVTTQVKDVTLFILDQEGNYIVREEVDSLTFHQNECTIQVPSLPQGDYTFLVWAGLADSLYRHTPTSLTLLRNEAGEQSEKLSSLFHGRLDNVHISGEYQVLALSLTKNTNILSCILQSQSAAPLDTDDFRLELTARNGCMDHRNTPTDSVSTCYLPFMQESANLEDIQVVHAGMNTLRLMENDDTRLRLIHQPDGKEIFDIPLTPYLLLSRNVETTYMPPQEYLDRQDRYNLIFFLSPTNDPQKPYICLQMQVNGWIIRINDAELDK", "soluble on expression in E. coli": "not soluble"},
      {"sequence": "MLGDRCAPIKASGVLIGDSVLVTDVEQARSLYSCGYYGQPLDVEKPRGADFEGPLRLSLIESLYLAEKGVLEVAKPDGSSVGVEDLRTAVRGNPRFSMLYNIYRDLRERGFVVRSGLKFGSDFAVYRLGPGIDHAPFIVHAYSPEDNIDPVEIVRAGRLSHSVRKKFVFAVTRGGDVSYLMIDWFRP", "soluble on expression in E. coli": "soluble"},
      {"sequence": "MAMTKNTRFSPEVRQRAVRMVLESQGEYDSQWATICSIAPKIGCTPETLRVWGLRQHERDTGGGDGGLTTAERQRLKEPERENRELRRSNDILRQASAYFAKAEFDRLWKKLEHHHHHH", "soluble on expression in E. coli": "soluble"},
      {"sequence": "MRPQQLHATEITSSGFRLAWPPLLTADSGYYVLELVPSAQPGAARRQQLPGNATDWIWAGLDPDTDYDVALVPESNVRLLRPQILRVRTRPGEAGPGASGPESGAGPAPTQLAALPAPEEAGPERIVISHARPRSLRVSWAPALGSAAALGYHVQFGPLRGGEAQRVEVPAGRNCTTLQGLAPGTAYLVTVTAAFRSGRESALSAKACTPDGPRPRPRPVPRAPTPGTASREP", "soluble on expression in E. coli": "soluble"},
      {"sequence": "MSLKITSIAVYQVDLPLREGNYAWSEGKSVSVFDSTVVRIETDSGIFGHGEVCPLGPVYLPAYAAGVRTGVAEIAPALIGDDPTELGKLNRKMDYLLKGHPYVKSALDVACWDIFGQAAGLPICTLLGGRYGEDFTLYRAISQRPAAEMAESVAMYRGEGYRRFQLKVGGDPNEDILRIFEAAEMLEPGDKLIADANTGWLKHEALRVVNAVRDVDVYIEQPCPSYEDCRAIRERTTLPFILDEVIDSVDMIVRCAADRAADVVNLKISKLGGLTKARQARDLCASLGLAMTIEDSWGGDIVTAAIAHLAHSTPTDYLFSSTDFNSYVTKSIADGAPQRDNGRLAAAREPGLGVKPKLDVLGKPVATYGKEGHHHHHH", "soluble on expression in E. coli": "soluble"},
      {"sequence": "MGGLTLFAAQGCKAPKQVAEQAEHPNIIYVFPDQYRNQAMGFWNQEGFRDKVNFRGDPVHTPNIDTFARESMVLTSAQSNCPLSSPHRGMLLTGMYPNRSGVPLNCNSTRPISSLRDDAECIGDVFSKAGYDCAYFGKLHADFPTPNDPENPGQYVETQRPVWDAYTPKEQRHGFNYWYSYGTFDEHKNPHYWDTDGKRHDPKEWSPLHESGKVVSYLKNEGNVRDTKKPFFIMVGMNPPHSPYRSLNDCEEQDFNLYKDQPLDSLLIRPNVDLNMKKAESVRYYFASVTGVDRAFGQILEALKQLGLDKNTVVIFASDHGETMCSQRTDDPKNSPYSESMNIPFLVRFPGKIQPRVDDLLLSAPDIMPTVLGLCGLGDSIPSEVQGRNFAPLFFDEKAEIVRPAGALYIQNLDGEKDKDGLVQSYFPSSRGIKTARYTLALYIDRKTKQLKKSLLFDDVNDPYQLNNLPLDENKEVVEQLYREMGTMLKEIDDPWYTEKILSDRIPYLEHHHHHH", "soluble on expression in E. coli": "not soluble"},
      {"sequence": "SSEQAIIVSAINHSLAQFSCHLIDGVTGSGKTEVYLQSMEEVLANNQQVLVIVPEIGLTPQTLNRFEQRFNVPIALHHSGLNDKERLATWLSAQQGSAAIVIGTRSAVFTPLHRLGLIIIDEEHDSSLKQQDSFRYHCRDMAILRARQLNIPIVLGTATP", "soluble on expression in E. coli": "not soluble"},
      {"sequence": "MSLEEQREILEQLKKTLQMLTVEPSKNNQIANEEKEKKENENSWCILEHNYEDIAQEFIDFIYKNPTTYHVVSFFAELLDKHNFKYLSEKSNWQDSIGEDGGKFYTIRNGTNLSAFILGKNWRAEKGVGVIGSHVDALTVKLKPVSFKDTAEGYGRIAVAPYGGTLNELWLDRDLGIGGRLLYKKKGTNEIKSALVDSTPLPVCRIPSLAPHFGKPAEGPFDKEDQTIPVIGFPSPDEEGNEPPTDDEKKSPLFGKHCIHLLRYVAKLAGVEVSELIQMDLDLFDVQKGTIGGIGKHFLFAPRLDDRLCSFAAMIALICYAKDVDTEESELFSTVTLYDNEEIGSLTRQGAKGGLLESVVERSSSAFTKKAVDLHTVWANSIILSADVNHLYNPNFPEVYLKNHFPVPNVGITLSLDPNGHMATDVVGTALVEELARRNGDKVQYFQIKNNSRSGGTIGPSLASQTGARTIDLGIAQLSMHSIRAATGSKDVGLGVKFFNGFFKHWRSVYDEFGELEGHHHHHH", "soluble on expression in E. coli": "soluble"},
      {"sequence": "MMARVEKLRELMKENNLQGFLVTSPYNLRYLTNFTGTTGLAMITLDKAFFVTDFRYTEQAAEQATGFTIVKNTGHIFDEVADLAERLQLDNLAFEETQVSFADYSLLEEILPCELVPVMGLIEELREVKDEEEVAIIEKACAIADQGFAFVLEMIKPGMTEIEVANQLDFFMRSKGASGVSFETIVASGLRSAMPHGVASHKVIEKGELITLDFGCYYEGYVSDMTRTFAIGSIQPKLKEIYDIVLEAQLKVLAEAKPGLTGIQLDAIARDHIASYGYGDAFGHSTGHGIGLEIHEGPNVSFRADKQFVPGNVITDEPGIYLPGIGGVRIEDDLLITAEGNRVLTHAPKELIIL", "soluble on expression in E. coli": "not soluble"},
      {"sequence": "MSLIYPEKNREVLVQLMNQSKNASLIQAWIDDGNTTIAPEKIQVTFILTPPVSRVAGGSGQQLKIRKMPNNLPHNKESLFYLNVLDIPPNNPQNAGKNKIKLALQNRIKLLWRPSGIAPVDKKSLSQLNIKKKNNAISINNETANWITVTTIKAQNVKVNNESILLPPFSHNDITLKNNHASEYELTVVDDYGNNIHSKIAAREGHHHHHH", "soluble on expression in E. coli": "not soluble"},
      {"sequence": "MLAERGANITGLDISGPMLQQGREKAQATGVDDRVEFMRGDAARLPFPDDHFDTVFAMRFFHLADTPAAFLAEMRRVSKEQVFFDTFNRFSTRSIYNWALPMGSRLYSRWEIDRLLDGAGLELTDANHDWLLPYGFYRKIPNELAASFRSLDTALGGTPLGEKLASVSYWNTHVLEHHHHHH", "soluble on expression in E. coli": "not soluble"},
      {"sequence": "SFWGWLNAVFNKVDHDRIRDVGPDRAASEWLLRCGAMVRYHGQQRWQKDYNHLPTGPLDKYKIQAIDATDSCIMSIGFDHMEGLQYVEKIRLCKCHYIEDGCLERLSQLENLQKSMLEMEIISCGNVTDKGIIALHHFRNLKYLFLSDLPGVKEKEKIVQAFKTSLPSLELKLDLK", "soluble on expression in E. coli": "soluble"},
      {"sequence": "MDLLKKEYTGITYISGPLLFVENAKDLAYGAIVDIKDGTGRVRGGQVIEVSEEYAVIQVFEETTGLDLATTSVSLVEDVARLGVSKEMLGRRFNGIGKPIDGLPPITPEKRLPITGLPLNPVARRKPEQFIQTGISTIDVMNTLVRGQKLPIFSGSGLPANEIAAQIARQATVRPDLSGEGEKEEPFAVVFAAMGITQRELSYFIQEFERTGALSRSVLFLNKADDPTIERILTPRMALTVAEYLAFEHDYHVLVILTDMTNYCEALREIGAAREEIPGRRGYPGYMYTDLATIYERAGVVEGKKGSVTQIPILSMPDDDRTHPIPDLTGYITEGQIQLSRELHRKGIYPPIDPLPSLSRLMNNGVGKGKTREDHKQVSDQLYSAYANGVDIRKLVAIIGEDALTENDRRYLQFADAFERFFINQGQQNRSIEESLQIAWALLSMLPQGELKRISKDHIGKYYGQKLEEIWGAPQALD", "soluble on expression in E. coli": "soluble"},
      {"sequence": "ASFPFGDFTADTKGTSDIAYSFRNDISGTGGLIKKGGSQLQLHGNNTYTGKTIIEGGSLVLYGNNKSDMRVETKGALIYNGAASGGSLNSDGIVYLADTDQSGANETVHIKGSLQLDGKGTLYTRLGKLLKVDGTAIIGGKLYMSARGKGAGYLNSTGRRVPFLSAAKIGQDYSFFTNIETDGGLLASLDSVEKTAGSEGDTLSYYVRRGNAARTASAAAHSAPAGLKHAVEQGGSNLENLMVELDASESSATPETVETAAADRTDMPGIRPYGATFRAAAAVQHANAADGVRIFNS", "soluble on expression in E. coli": "not soluble"}
    ]}
  ]
}
